Laboratory results taken from the nanobody polyreactivity screen of Harvey et al. (2022).

Assay: yeast display, Sf9 membrane polyspecificity reagent, FACS + sequencing; frameworks hold sequencing errors
Summary of the method: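 Using colony PCR, genes from sorted yeast display clones were amplified, then sequenced on MiSeq at 2 × 250 and filtered by CDR length. The clones had been stained with 10% biotinylated, detergent-solubilized Sf9 membrane reagent for 1 hour at 4 °C and sorted by FACS into low and high (top ~1%) gates on anti-HA and streptavidin fluorescence. Polyreactivity labels come from the gate of origin.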

Sequence	polyreactivity (PSR sort gate)
QVQLVESGGGLVQAGGSLRLSCAASGSIFGVYAMGWYRQAPGKERELVAAIDSGGDTYYADSVKGRFTISRDNAKNTVYLQMNSLKPEDTAVYYCNAPYNRATYNYWGQGTQVTVSS	high polyreactivity
QVQLVESGGGLVQAGGSLRLSCAASGSIFGVYAMGWYRQAPGKERGLVARISGSSGSTRYADSVKGRFTISRDNAKNTVYLQMNSLKPEDTAVYYCAARAIFRQGDRIYDSWGQGTQVTVSS	high polyreactivity
QVQLVESGGGLVQAGGSLRLSCAASGSIFGVYDMGWYRQAPGKEREVVAVINSNGGSTYYADSVKGRFTISRDNAKNTVYLQMNSLKPEDTAVYYCAADYQSYVYIGYGYWGQGTQVTVSS	low polyreactivity
QVQLVESGGGLVQAGGSLRLSCAASGSIFGVYTMGWYRQAPGKERELVAAITSAGSTYADSVKGRFTISRDNAKNTVYLQMNSLKPEDTEVFYCNAQSVLLSLRVELREPHEYWGQGTQVTVSS	low polyreactivity
QVQLVESGGGLVQAGGSLRLSCAASGSIFGWYAKGLYRQAPGKEREFVAVISSSGDSTFYADSVKGRFTISRDNAKNTVYLQMNSLKPEDTAVYYCAAYYYYYYWPQTAYWQGDYWGHGTQVTVSS	high polyreactivity
QVQLVESGGGLVQAGGSLRLSCAASGSIFGYNAMGWSRPAPGKERELVAAITSSGGSTYYADSVKGRFTISRDNAKNTVYLQMNSLKPEDTAVYYCNARDWYIVWYDYWGQGTQVTVSS	low polyreactivity
QVQLVESGGGLVQAGGSLRLSCAASGSIFGYNAMGWYRPAPGKERELVAAISRSGGSTYYADSVKGRFTISRDNAKNTVYLQMNSLKPEDTAVSYCATGYYGYRYGYWGQGTQVTVSS	high polyreactivity
QVQLVESGGGLVQAGGSLRLSCAASGSIFGYNAMGWYRQAPGKERELVADISSGDSTNYADSVKGRFTISRDNAKNTVYLQMNSLKPEDTAVYYCAADFTYQGSSANDYWGQGTQVTVSS	low polyreactivity
QVQLVESGGGLVQAGGSLRLSCAASGSIFGYNAMGWYRQAPGKERELVAVINASGASTYYADSVKGRFTISRDNAKNTVYLQMNSLKPEDTAVYYCAKDPFPFPGGDYWGQGTQVTVSS	low polyreactivity
QVQLVESGGGLVQAGGSLRLSCAASGSIFGYNAMGWYRQAPGKESELVAAISSSGGRTYYADSVKGRFTNSRDNAKNTVYLQMNSLKPEDTAVYYCAALGLYGDYLWYDYWGQGTQVTVSS	high polyreactivity
QVQLVESGGGLVQAGGSLRLSCAASGSIFGYNAMGWYRQAPGKETELVAVITRSDGSTYYADSVKGRFTISRDNAKNTVYLQMNSLKPVDTAVYYCNAETHVYYWGVVIYEYNYWGQGTQVTVSS	low polyreactivity
QVQLVESGGGLVQAGGSLRLSCAASGSIFGYNVMGWYRQAPGKERELVAAITVNGGRTYYADSVKGRFTISRDNAKNTVYLQINSLKAEDTAVYYCAARVTGTQRSGYYWGQGTQVTVSS	high polyreactivity
QVQLVESGGGLVQAGGSLRLSCAASGSIFGYYAMGCYRQAPGKERELDAAISASGGSTYYADSVKGRFTISRDNAKITVYFHMNSLKPEDTAVYYCAAVRSVTYIWARYPYGLEYCGQGTQVTVSS	high polyreactivity
QVQLVESGGGLVQAGGSLRLSCAASGSIFGYYAMGWSRQAPGKERELVAAISASGGSTYYADSVKGRFTISRDNAKNTVYLQMNSLKPEDTAVYYCAKVDWEQGFWVEYDHYDYWGQGTQVTVSS	high polyreactivity
QVQLVESGGGLVQAGGSLRLSCAASGSIFGYYAMGWYRKAPGKERELVAAISWSDGSTYYADSVKGRFTISRDNAKNTVYLQMNSLNPEDTAVYYCAARFTPYITSDDGHYDYWGQGTQVTVSS	low polyreactivity
QVQLVESGGGLVQAGGSLRLSCAASGSIFGYYAMGWYRPATGKEREFVAAITSSGGSTYYADSVKGRFTISRDNAKNTVYLQMNSLKPEDTAVYYCNAGAWQLYWYRYEYWGQGTQVTVSS	high polyreactivity
QVQLVESGGGLVQAGGSLRLSCAASGSIFGYYAMGWYRQAPGKEREFDADINSRDGGTYYADSVKGRFTISRDNAKNTVYLQMNSLKPEDTAVYYCAAPYYAAWVAVAIEYDYWGQGTQVTVSS	low polyreactivity
QVQLVESGGGLVQAGGSLRLSCAASGSIFGYYAMGWYRQAPGKEREFVAAITWNGGSTYYADSVKGRFTISRDNAKNTVYLQMNSLKPEDTAVYYCARTSYARYRNGWTYDHWGQGTQVTVSS	low polyreactivity
QVQLVESGGGLVQAGGSLRLSCAASGSIFGYYAMGWYRQAPGKERELVAAISGSGGSTYYADSVKGRFTISRDNAKNTVYLQMNSLKPEDTAVYYCAAAYHGRHYYWGQGTQVTVSS	high polyreactivity
QVQLVESGGGLVQAGGSLRLSCAASGSIFGYYAMGWYRQAPGKERELVAAISWSGGSTYYADSVKGRFTISRDNAKNTVYLQMNSLKPEDTAVYYCAATSRGNDSQKYYYWGQGTQVTVSS	low polyreactivity
QVQLVESGGGLVQAGGSLRLSCAASGSIFGYYAMGWYRQAPGKERELVAAITSDGSTYYADSVKGRFTITRDNAKNTVNLQMNSLKPEDTAVYYCAAYSWYYTSRYDYWGQGTQVTVSS	low polyreactivity
QVQLVESGGGLVQAGGSLRLSCAASGSIFGYYAMGWYRQAPGKERELVARIRSTGSTNYADSVKGRFTISRDNAKNTVYLQMNSLKPEDTAVFYCNKLAHRKGGYWGQGTQVTVSS	high polyreactivity

Sequence	polyreactivity (PSR sort gate)
QVQLVESGGGLVQAGGSLRLSCAASGSIFGYYAMGWYRQAPGKERELVASISWSGTSTYYADSVKGRFTISRDNAKNTVYLQMNSLKPEDTAVYYCATKGLFTNSPLYVSAYDYWGQGTQVTVSS	low polyreactivity
QVQLVESGGGLVQAGGSLRLSCAASGSIFGYYAMGWYRQAPGKERELVATISNDGSTKYADSVKGRFTISRDNAKNTVYLQMNSLKPEDSAVYYCAADSARHGRDTYQPEYRNDYWGQGTQVTVSS	low polyreactivity
QVQLVESGGGLVQAGGSLRLSCAASGSIFGYYDMGWYRQAPGKERELVAAISSRGGITYYADSVKGRFTISRDHAKNTVYLQMNSLKPEDTAVYYCAAYAYFHRREGYWVQGTQVTVSS	high polyreactivity
QVQLVESGGGLVQAGGSLRLSCAASGSIFGYYGMGWYRQAPGKERELVAAISYRGGYTYYADSVKGRFTISRDNAKNTVSLQMNSLKPEDTAVYYCNAGGRRRIFAHSSTGDYWGQGTQVTVSS	high polyreactivity
QVQLVESGGGLVQAGGSLRLSCAASGSIFGYYTMGLYRQAPGKERELVAAITSGGSTNYADSVKGRFTISRDNAKNTVYLQMNSLKPEDTAVYYCAKVSYYPWRYDYWGQGTQVTVSS	low polyreactivity
QVQLVESGGGLVQAGGSLRLSCAASGSIFGYYTMGWYRKAPGKERELVAAITSGGSTNYADSVKGRFTISRDNAKNTVYLQMNSLKPEDTAVYYCAKVSYYPWRYDYWGQGTQVTVSS	low polyreactivity
QVQLVESGGGLVQAGGSLRLSCAASGSIFGYYTMGWYRQAPGKEREFVAAISWSGGSTYYADSVKGRFTISRDNAKNTVYLQMTSLKPEDTAVYYCNADVYWEYDYWGQGTQVTVSS	low polyreactivity
QVQLVESGGGLVQAGGSLRLSCAASGSIFGYYTMGWYRQAPGKERELVAAITYSGGSTYYADSVKGRFTISRDNAKNTVYLQMNSLKPEDTAVYYCNAKSAAHRYVRRHDYWGQGTQVTVSS	low polyreactivity
QVQLVESGGGLVQAGGSLRLSCAASGSIFGYYTMGWYRQAPGKERELVATISRSGGSTYYADSVKGRFTISRDNAKNTVYLQMNSLKPEDTAVYYCGARSWGGYDSRGYWGQGTQVTVSS	high polyreactivity
QVQLVESGGGLVQAGGSLRLSCAASGSIFGYYVMGWDRQAPGKERELVAAITRSGSTYYADSVKGRFTISRDNAKNTVYLQMNSLKPEDTAVYYCAADGSYYWYPHTTYDYWGQGTQVTVSS	low polyreactivity
QVQLVESGGGLVQAGGSLRLSCAASGSIFHFNAMGWYRQAPGKERELVATITSSGSSTYYADSVKGRFTISRDNAKNTVYLQMNSLKPEDTAVYYCAAGWFWQMDYWGQGTQVTVSS	low polyreactivity
QVQLVESGGGLVQAGGSLRLSCAASGSIFHIYMGGYRQAPGKERELVASMSYRGGTTYYADSVKGRFTISRDNAKNTVYLQKNSLKPEDTAVYYCNVHRDFYHYGRYGHMDYWGQGC	low polyreactivity
QVQLVESGGGLVQAGGSLRLSCAASGSIFHLYAMGWYRQAPGKEREFVAAISSSGGLTYYADSVKGRFTISRDNAKNTVYLQMNSLKPEDTEVYYCATAEQYGTKLRKVSYQYDYWGQGTQVTVSS	low polyreactivity
QVQLVESGGGLVQAGGSLRLSCAASGSIFHPYAMGWYRQAPGKERELVAAISKSGGNTYYADSVKGRFTISRDNAKNTVYLQMNSLKPEDTAVYYCAALDYWGQGTQLTVSS	low polyreactivity
QVQLVESGGGLVQAGGSLRLSCAASGSIFHPYGMGWYRQAPGKERELVAAITSSGGDKYYADSVKGRFTISRDNAKNTVYLQMNSLKPEDTAVYYCAATGLPGYYAYDYWGQGTQVTVSS	low polyreactivity
QVQLVESGGGLVQAGGSLRLSCAASGSIFHRYAMGWYRQAPGKERELVAAINRGGSSYADSVKGRFTISLDNAKNTVYLQMNRLNPEDTAVYYCATRNIGRSTGPFYWGYYYWGQGTQVTVSS	high polyreactivity
QVQLVESGGGLVQAGGSLRLSCAASGSIFHSYAMGWYRQAPGKERDFVASITQRVGRTNYADSVKGRFTISRDNAKNTVYLQMNSLKPEDTAVYYFAASYWRLYYRRDYWGQGTQVTVSS	high polyreactivity
QVQLVESGGGLVQAGGSLRLSCAASGSIFHTYAMGWYRKAPEKERELVAANTVSGGDTYYADSVKGRFTISRDNEKNTVYLQMNSLKAEDTAVYYCAVDTTTSYTVEYDYWGQGTQVTVSS	low polyreactivity
QVQLVESGGGLVQAGGSLRLSCAASGSIFHWNAMGWYRQAPGKERELVAGITTSGGTTYYADSVKGRFTISRDNAKNTVYLQMNSLKPEDTAVYYCAARIIRWRPRWPSYGKYDYWGQGTQVTVSS	low polyreactivity
QVQLVESGGGLVQAGGSLRLSCAASGSIFHYNAMGWSRQAPGKERELVAAISRGGSTHYADSVKGRFTISRDNAKNTVYLQMNSLKPEDTAVYYCATVQVVGPWSYRKLDYCGQGTQVTVSS	high polyreactivity
QVQLVESGGGLVQAGGSLRLSCAASGSIFHYYAMGWYRQAPGKERELVAAINSSGGSRTYYADSVKGRFTISRDNAKNTVYLQMNSLKPEDTAVYYCAAARDVFLGLQIWYWYGGDYWGQGTQVTVSS	low polyreactivity
